Source: the supplement of paper PMC10065799, “High-throughput profiling of sequence recognition by tyrosine kinases and SH2 domains using bacterial peptide display” (eLife, 2023)

Key:
AncSZ = assay: phosphorylation enrichment, bacterial display (enrichment ratio); higher = better substrate or ligand; peptides without Tyr show the background
FGFR1 = FGFR1 (UniProt P11362); assay: as above
c-Abl (mouse) = assay: as above
Fes = Fes (UniProt P07332); assay: as above
EPHB2 = EPHB2 (UniProt P29323); assay: as above
MERTK = MERTK (UniProt Q12866); assay: as above
c-Src = assay: as above
Fer (mouse) = assay: as above
Jak2 = Jak2 (UniProt O60674); assay: as above
EPHB1 = EPHB1 (UniProt P54762); assay: as above
Hck = Hck (UniProt P08631); assay: as above
FGFR3 = FGFR3 (UniProt P22607); assay: as above
Fyn = Fyn (UniProt P06241); assay: as above
Grb2 SH2 = Grb2 SH2 (UniProt P62993); assay: SH2 binding enrichment of the phosphorylated peptide, bacterial display (enrichment ratio); higher = better substrate or ligand; peptides without Tyr show the background
SHP2-C SH2 = assay: as above
c-Src SH2 = assay: as above
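For SH2 binding enrichment of the phosphorylated peptide, bacterial display in this document: peptide library displayed on the E. coli surface as eCPX fusions, selected cells deep-sequenced, score is each peptide's frequency after selection divided by its frequency in the input.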
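For phosphorylation enrichment, bacterial display in this document: 11-residue human phosphosite peptides and single-mutation variants displayed on the E. coli surface, counted by deep sequencing, each peptide's frequency after selection divided by its frequency in the unselected input library; frequency after pTyr selection over input frequency; kinase dosed for 20-30% of maximal phosphorylation in three min.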

Sequence of EPHB1 (P54762 whole entry, looked up): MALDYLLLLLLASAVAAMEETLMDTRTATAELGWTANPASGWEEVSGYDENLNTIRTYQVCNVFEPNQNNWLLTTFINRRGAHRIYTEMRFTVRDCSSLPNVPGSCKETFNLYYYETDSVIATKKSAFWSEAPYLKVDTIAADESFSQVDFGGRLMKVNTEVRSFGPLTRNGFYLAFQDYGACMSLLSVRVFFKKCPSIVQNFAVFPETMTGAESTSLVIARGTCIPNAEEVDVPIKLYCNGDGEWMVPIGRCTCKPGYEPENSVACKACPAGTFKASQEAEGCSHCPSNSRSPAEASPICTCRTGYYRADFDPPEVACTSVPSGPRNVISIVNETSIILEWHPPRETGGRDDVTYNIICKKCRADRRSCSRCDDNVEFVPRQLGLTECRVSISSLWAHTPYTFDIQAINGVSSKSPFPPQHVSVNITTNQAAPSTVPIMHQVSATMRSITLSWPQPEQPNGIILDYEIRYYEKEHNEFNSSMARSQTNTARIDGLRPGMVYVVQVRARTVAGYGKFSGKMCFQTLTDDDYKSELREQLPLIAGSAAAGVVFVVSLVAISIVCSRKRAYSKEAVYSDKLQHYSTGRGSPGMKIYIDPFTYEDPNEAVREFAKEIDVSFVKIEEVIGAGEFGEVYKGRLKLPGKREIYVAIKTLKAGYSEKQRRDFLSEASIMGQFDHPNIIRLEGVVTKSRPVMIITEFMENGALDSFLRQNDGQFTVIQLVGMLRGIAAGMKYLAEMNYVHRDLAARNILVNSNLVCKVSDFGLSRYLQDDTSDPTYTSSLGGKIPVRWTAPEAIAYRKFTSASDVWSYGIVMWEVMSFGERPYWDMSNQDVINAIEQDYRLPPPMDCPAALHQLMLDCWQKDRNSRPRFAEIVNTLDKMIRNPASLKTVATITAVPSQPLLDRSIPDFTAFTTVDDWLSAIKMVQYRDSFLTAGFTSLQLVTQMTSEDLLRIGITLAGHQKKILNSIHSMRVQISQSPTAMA
Sequence of EPHB2 (P29323 whole entry, looked up): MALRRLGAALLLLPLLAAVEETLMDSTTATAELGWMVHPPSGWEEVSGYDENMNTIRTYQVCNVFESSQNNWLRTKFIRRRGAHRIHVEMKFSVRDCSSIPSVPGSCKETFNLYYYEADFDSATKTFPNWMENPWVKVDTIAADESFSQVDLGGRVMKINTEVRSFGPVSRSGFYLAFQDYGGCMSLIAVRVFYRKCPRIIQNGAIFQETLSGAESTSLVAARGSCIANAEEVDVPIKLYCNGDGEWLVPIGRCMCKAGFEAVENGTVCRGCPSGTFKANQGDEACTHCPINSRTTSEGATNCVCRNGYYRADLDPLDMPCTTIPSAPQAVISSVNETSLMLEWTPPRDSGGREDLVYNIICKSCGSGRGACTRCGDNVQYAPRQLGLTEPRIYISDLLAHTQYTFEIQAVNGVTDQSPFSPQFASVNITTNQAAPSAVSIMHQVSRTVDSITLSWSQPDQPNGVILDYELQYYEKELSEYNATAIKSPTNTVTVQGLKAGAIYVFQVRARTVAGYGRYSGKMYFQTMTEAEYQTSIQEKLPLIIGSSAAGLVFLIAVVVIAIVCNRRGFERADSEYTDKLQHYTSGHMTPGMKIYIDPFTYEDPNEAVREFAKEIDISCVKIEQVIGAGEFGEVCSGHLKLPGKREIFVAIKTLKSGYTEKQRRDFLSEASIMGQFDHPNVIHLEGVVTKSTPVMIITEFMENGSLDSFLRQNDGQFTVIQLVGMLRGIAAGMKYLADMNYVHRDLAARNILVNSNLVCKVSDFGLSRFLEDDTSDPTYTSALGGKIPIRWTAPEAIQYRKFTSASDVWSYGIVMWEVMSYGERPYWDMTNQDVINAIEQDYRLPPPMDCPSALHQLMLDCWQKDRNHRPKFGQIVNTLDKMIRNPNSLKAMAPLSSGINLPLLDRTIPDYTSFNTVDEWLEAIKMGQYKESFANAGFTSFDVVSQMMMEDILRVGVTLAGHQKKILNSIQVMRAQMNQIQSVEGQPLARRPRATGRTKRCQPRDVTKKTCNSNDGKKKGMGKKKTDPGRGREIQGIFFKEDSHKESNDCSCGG
Sequence of MERTK (Q12866 whole entry, looked up): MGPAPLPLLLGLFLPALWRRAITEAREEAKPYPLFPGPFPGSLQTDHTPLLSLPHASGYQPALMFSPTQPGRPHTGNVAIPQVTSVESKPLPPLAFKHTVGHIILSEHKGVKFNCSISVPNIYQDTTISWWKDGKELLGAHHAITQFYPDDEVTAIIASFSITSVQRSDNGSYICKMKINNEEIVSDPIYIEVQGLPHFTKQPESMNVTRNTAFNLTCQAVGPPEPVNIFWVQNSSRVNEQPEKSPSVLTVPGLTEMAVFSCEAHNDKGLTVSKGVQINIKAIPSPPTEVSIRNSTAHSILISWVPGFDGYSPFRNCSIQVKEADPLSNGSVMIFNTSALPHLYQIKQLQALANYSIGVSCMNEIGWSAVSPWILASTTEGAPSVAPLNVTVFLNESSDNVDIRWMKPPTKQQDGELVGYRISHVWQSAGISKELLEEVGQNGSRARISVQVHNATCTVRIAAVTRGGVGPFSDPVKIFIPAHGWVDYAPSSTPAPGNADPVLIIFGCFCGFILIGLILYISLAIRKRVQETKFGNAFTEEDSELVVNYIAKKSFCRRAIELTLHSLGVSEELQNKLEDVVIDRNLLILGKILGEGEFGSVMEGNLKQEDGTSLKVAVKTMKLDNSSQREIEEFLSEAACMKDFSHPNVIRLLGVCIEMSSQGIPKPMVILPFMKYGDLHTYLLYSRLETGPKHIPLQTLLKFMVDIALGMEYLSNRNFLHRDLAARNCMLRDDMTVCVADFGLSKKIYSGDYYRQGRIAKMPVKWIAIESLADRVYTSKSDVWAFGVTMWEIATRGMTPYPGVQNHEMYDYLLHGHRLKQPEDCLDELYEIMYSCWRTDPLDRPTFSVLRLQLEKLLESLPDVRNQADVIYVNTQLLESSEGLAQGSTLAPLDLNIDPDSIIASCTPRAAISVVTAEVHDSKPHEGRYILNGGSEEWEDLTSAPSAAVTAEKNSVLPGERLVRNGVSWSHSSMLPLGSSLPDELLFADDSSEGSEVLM
Sequence of FGFR3 (P22607 whole entry, looked up): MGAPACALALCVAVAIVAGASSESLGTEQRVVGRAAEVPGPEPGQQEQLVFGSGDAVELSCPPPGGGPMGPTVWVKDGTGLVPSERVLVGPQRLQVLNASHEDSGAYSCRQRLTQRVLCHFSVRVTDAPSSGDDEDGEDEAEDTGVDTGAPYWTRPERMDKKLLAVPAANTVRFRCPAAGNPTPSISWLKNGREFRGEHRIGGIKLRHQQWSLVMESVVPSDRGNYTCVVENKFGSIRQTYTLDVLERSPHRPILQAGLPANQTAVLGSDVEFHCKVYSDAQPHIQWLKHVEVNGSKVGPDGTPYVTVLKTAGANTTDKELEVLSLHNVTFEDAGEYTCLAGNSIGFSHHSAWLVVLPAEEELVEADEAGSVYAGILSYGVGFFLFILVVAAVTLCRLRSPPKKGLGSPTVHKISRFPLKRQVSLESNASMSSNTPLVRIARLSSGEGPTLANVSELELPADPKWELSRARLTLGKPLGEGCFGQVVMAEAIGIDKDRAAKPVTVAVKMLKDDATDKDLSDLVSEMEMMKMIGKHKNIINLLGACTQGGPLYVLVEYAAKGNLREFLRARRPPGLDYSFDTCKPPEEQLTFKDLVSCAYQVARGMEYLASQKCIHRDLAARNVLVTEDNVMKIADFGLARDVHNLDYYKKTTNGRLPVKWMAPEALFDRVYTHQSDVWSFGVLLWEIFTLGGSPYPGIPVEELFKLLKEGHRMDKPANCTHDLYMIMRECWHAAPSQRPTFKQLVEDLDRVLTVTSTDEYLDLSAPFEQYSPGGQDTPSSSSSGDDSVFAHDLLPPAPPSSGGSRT
Sequence of Fes (P07332 whole entry, looked up): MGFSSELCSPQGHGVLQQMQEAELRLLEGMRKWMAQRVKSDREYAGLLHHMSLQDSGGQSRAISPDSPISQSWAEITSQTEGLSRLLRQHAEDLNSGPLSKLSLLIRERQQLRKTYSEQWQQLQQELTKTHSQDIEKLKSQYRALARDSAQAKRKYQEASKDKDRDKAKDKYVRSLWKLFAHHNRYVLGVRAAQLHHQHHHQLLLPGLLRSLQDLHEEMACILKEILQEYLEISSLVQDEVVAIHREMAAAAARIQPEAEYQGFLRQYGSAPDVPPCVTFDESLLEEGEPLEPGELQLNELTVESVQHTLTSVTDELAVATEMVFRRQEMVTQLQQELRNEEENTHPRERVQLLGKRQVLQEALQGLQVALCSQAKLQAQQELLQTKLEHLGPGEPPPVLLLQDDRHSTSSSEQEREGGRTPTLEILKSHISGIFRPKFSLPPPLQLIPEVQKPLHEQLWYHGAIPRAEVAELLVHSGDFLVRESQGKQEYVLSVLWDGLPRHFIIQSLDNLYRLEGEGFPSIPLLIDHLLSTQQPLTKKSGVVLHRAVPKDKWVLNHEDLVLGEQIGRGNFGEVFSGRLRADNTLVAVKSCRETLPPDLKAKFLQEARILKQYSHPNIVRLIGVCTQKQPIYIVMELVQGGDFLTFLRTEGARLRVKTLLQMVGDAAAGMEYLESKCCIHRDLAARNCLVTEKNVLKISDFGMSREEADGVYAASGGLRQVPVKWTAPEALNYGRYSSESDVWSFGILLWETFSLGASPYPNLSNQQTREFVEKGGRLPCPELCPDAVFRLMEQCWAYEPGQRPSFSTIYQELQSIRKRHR

| Sequence | SH2 binding enrichment (Grb2 SH2) | SH2 binding enrichment (SHP2-C SH2) | SH2 binding enrichment (c-Src SH2) | phosphorylation enrichment (AncSZ) | phosphorylation enrichment (FGFR1) | phosphorylation enrichment (c-Abl (mouse)) | phosphorylation enrichment (Fes) | phosphorylation enrichment (EPHB2) | phosphorylation enrichment (MERTK) | phosphorylation enrichment (c-Src) | phosphorylation enrichment (Fer (mouse)) | phosphorylation enrichment (Jak2) | phosphorylation enrichment (EPHB1) | phosphorylation enrichment (Hck) | phosphorylation enrichment (FGFR3) | phosphorylation enrichment (Fyn) |
| --- | --- | --- | --- | --- | --- | --- | --- | --- | --- | --- | --- | --- | --- | --- | --- | --- |
| RLLVLYPWTQR [HBB_Y36_V35L] | 1.77 | 1.75 | 1.52 | 1.42 | 0.886 | 0.558 | 1.26 | 0.98 | 0.541 | 0.366 | 0.594 | 0.702 | 0.681 | 0.782 | 0.987 | 0.791 |
| KGERGYPGTLG [COL4A1_Y348_P352L] | 0.873 | 0.537 | 0.421 | 0.597 | 0.375 | 0.398 | 0.505 | 0.439 | 0.403 | 0.337 | 0.345 | 0.475 | 0.339 | 0.448 | 0.484 | 0.392 |
| SIKGKYVTALF [KCNH2_Y611_D609G_YF] | 0.988 | 0.806 | 0.735 | 0.771 | 0.361 | 0.617 | 0.798 | 0.409 | 0.414 | 0.495 | 0.525 | 0.77 | 0.519 | 0.408 | 0.449 | 0.406 |
| WQQQSYLDSGS [CTNNB1_Y30_I35S] | 0.733 | 0.582 | 0.481 | 0.781 | 0.561 | 0.56 | 0.741 | 0.528 | 0.397 | 0.363 | 0.675 | 0.581 | 0.436 | 0.45 | 0.536 | 0.423 |
| SSLEDYVRETN [GIMAP6_Y176_G171S] | 0.899 | 0.776 | 0.532 | 1.03 | 0.67 | 0.721 | 1.06 | 0.527 | 0.424 | 0.44 | 0.466 | 0.92 | 0.46 | 0.431 | 0.641 | 0.485 |
| ADLAKYICENQ [ALB_Y287] | 0.868 | 0.754 | 0.607 | 0.979 | 0.485 | 0.83 | 1.13 | 0.63 | 0.386 | 0.505 | 0.459 | 1.09 | 0.672 | 0.627 | 0.788 | 0.461 |
| LRNIDYFRLDG [ATRX_Y2083_YF] | 0.761 | 22.6 | 0.595 | 3.71 | 21.5 | 5.39 | 4.09 | 3.05 | 3.41 | 3.74 | 1.7 | 26.8 | 2.95 | 1.63 | 10.8 | 2.77 |
| LYDPDFMKVIL [CYP4A22_Y104_Y104F] | 0.785 | 0.634 | 0.467 | 1.18 | 0.562 | 1.8 | 1.78 | 1.01 | 2.57 | 0.954 | 1.09 | 1.39 | 0.772 | 0.634 | 0.688 | 0.888 |
| PLQHVYKIGGI [EEF1A2_Y254_D252H] | 0.941 | 0.588 | 0.517 | 0.964 | 0.649 | 0.766 | 1.06 | 0.71 | 0.739 | 0.959 | 0.696 | 1.52 | 0.73 | 0.865 | 0.733 | 0.643 |
| ESMLRYDVFGG [STOX1_Y607_E608D_YF] | 1.1 | 0.627 | 1.56 | 0.933 | 0.508 | 0.582 | 0.846 | 0.631 | 2.37 | 1.1 | 0.536 | 0.91 | 0.445 | 0.619 | 0.685 | 0.636 |
| IGEVVYQWAVM [GRIN2A_Y502_R504W] | 0.845 | 0.61 | 0.532 | 2.06 | 1.03 | 1.57 | 1.48 | 0.598 | 0.904 | 1.47 | 7.77 | 1.17 | 0.89 | 1.1 | 1.15 | 1.16 |
| YPKARYRWLVL [APTX_Y214_H215R] | 1.08 | 1.02 | 0.933 | 0.786 | 0.611 | 0.499 | 0.787 | 0.553 | 0.478 | 0.399 | 0.456 | 0.6 | 0.434 | 0.422 | 0.492 | 0.464 |
| REGDKYVSHGA [ASS1_Y113_A111D] | 0.623 | 1.01 | 0.407 | 0.938 | 0.731 | 0.873 | 1.03 | 0.622 | 0.744 | 0.643 | 0.486 | 0.83 | 0.794 | 0.61 | 0.58 | 0.505 |
| IRYPPYTDWNQ [ALDH3B2_Y365_H361R] | 0.76 | 0.76 | 0.767 | 0.781 | 0.628 | 0.487 | 0.826 | 0.494 | 0.429 | 0.418 | 0.567 | 0.675 | 0.428 | 0.464 | 0.612 | 0.468 |
| GSRGKYSSGFH [ATM_Y332_R337H] | 1.04 | 0.649 | 0.905 | 0.464 | 0.452 | 0.579 | 0.535 | 0.3 | 0.452 | 0.45 | 0.409 | 0.439 | 0.417 | 0.391 | 0.605 | 0.421 |
| SHGQDYLVGNK [GSTA1_Y147] | 0.58 | 0.564 | 0.432 | 0.585 | 0.385 | 0.62 | 0.74 | 0.456 | 0.363 | 0.417 | 0.449 | 0.606 | 0.402 | 0.412 | 0.419 | 0.451 |

Second part, led by results:

| SH2 binding enrichment (Grb2 SH2) | SH2 binding enrichment (SHP2-C SH2) | SH2 binding enrichment (c-Src SH2) | Sequence | phosphorylation enrichment (AncSZ) | phosphorylation enrichment (FGFR1) | phosphorylation enrichment (c-Abl (mouse)) | phosphorylation enrichment (Fes) | phosphorylation enrichment (EPHB2) | phosphorylation enrichment (MERTK) | phosphorylation enrichment (c-Src) | phosphorylation enrichment (Fer (mouse)) | phosphorylation enrichment (Jak2) | phosphorylation enrichment (EPHB1) | phosphorylation enrichment (Hck) | phosphorylation enrichment (FGFR3) | phosphorylation enrichment (Fyn) |
| --- | --- | --- | --- | --- | --- | --- | --- | --- | --- | --- | --- | --- | --- | --- | --- | --- |
| 0.762 | 1.03 | 0.427 | IQTDGDRAPEA [UHMK1_Y197_Y197D] | 1.08 | 0.602 | 0.79 | 1.35 | 0.702 | 0.487 | 0.536 | 0.595 | 0.96 | 0.636 | 0.655 | 0.88 | 0.466 |
| 1.57 | 1.5 | 0.972 | RAVLLYEFVGK [NATD1_Y45_YF] | 2.71 | 2.12 | 1.54 | 3.12 | 27.1 | 12.7 | 5.67 | 14.9 | 1.56 | 23.8 | 8.33 | 2.29 | 5.5 |
| 1.21 | 0.837 | 0.922 | CTTIHDNYMCN [TP53_Y234_Y234D] | 0.817 | 0.541 | 0.551 | 1 | 0.556 | 0.507 | 0.44 | 0.54 | 0.799 | 0.521 | 0.546 | 0.539 | 0.435 |
| 1.08 | 1.03 | 0.568 | PDNKPYIFKVF [PIK3AP1_Y553_E551K] | 1.37 | 0.681 | 0.79 | 1.75 | 0.919 | 0.428 | 0.526 | 0.728 | 1.03 | 0.752 | 0.619 | 0.831 | 0.665 |
| 0.854 | 0.991 | 1.96 | YGCGMYSHLQG [LGR4_Y848_D844G] | 1.2 | 1.06 | 1.49 | 1.07 | 1.07 | 5.25 | 2.87 | 1.24 | 0.723 | 1.06 | 4.44 | 0.998 | 1.51 |
| 0.684 | 1.12 | 0.383 | TDKLFYIYTPG [SLC27A4_Y243_S247P] | 1.25 | 0.728 | 0.673 | 1.34 | 0.502 | 1.46 | 0.592 | 0.494 | 1.68 | 0.683 | 0.498 | 0.853 | 0.422 |
| 0.941 | 0.654 | 0.477 | QKFMAYPSQGG [HLCS_Y236_L237P] | 0.625 | 0.512 | 1.12 | 0.886 | 0.525 | 0.613 | 0.779 | 0.654 | 1.2 | 0.388 | 0.537 | 0.484 | 0.388 |
| 1.3 | 1.19 | 1.08 | KHGGNYVPAPK [OSCP1_Y237] | 0.7 | 0.512 | 0.822 | 1.05 | 0.304 | 0.439 | 0.491 | 0.456 | 0.692 | 0.407 | 0.529 | 0.604 | 0.359 |
| 0.642 | 0.535 | 0.401 | SEASFYKSLNL [NGEF_Y289_YF] | 0.98 | 0.395 | 0.852 | 1.27 | 0.522 | 0.471 | 0.505 | 0.57 | 1.1 | 0.589 | 0.488 | 0.692 | 0.403 |
| 0.848 | 0.749 | 0.413 | FLKDVYVDSKD [NDUFAF4_Y69] | 1.11 | 0.488 | 0.66 | 0.983 | 0.512 | 0.471 | 0.471 | 0.557 | 0.855 | 0.459 | 0.707 | 0.731 | 0.48 |
| 0.795 | 0.625 | 0.421 | NDFGNYSNQSS [HNRNPA1_Y318_N319S] | 1.02 | 0.461 | 0.458 | 0.619 | 1.92 | 0.501 | 0.463 | 0.43 | 0.546 | 6.89 | 0.451 | 0.49 | 0.416 |
| 0.734 | 2.31 | 0.566 | GESVSYLFSHV [PRPS1_Y311] | 0.872 | 0.397 | 0.701 | 0.996 | 0.473 | 0.421 | 0.431 | 0.417 | 0.847 | 0.511 | 0.473 | 0.588 | 0.421 |
| 0.812 | 0.773 | 0.612 | KNITEYCRHLI [RECQL_Y492_D495H] | 0.726 | 0.526 | 0.654 | 0.855 | 0.436 | 0.43 | 0.477 | 0.533 | 0.88 | 0.51 | 0.455 | 0.533 | 0.433 |
| 0.981 | 0.642 | 0.422 | HLITAYRAHGF [PDHA1_Y118] | 0.648 | 0.701 | 0.309 | 0.74 | 0.389 | 0.369 | 0.344 | 0.489 | 0.408 | 0.572 | 0.536 | 0.609 | 0.551 |
| 1.02 | 0.979 | 0.71 | DFFDLYGGEKL [PTPN11_Y66_F71L_YF] | 1.54 | 0.582 | 1.02 | 1.92 | 0.901 | 0.9 | 3.79 | 0.816 | 1.88 | 0.743 | 3.61 | 0.746 | 2.1 |
| 0.89 | 0.662 | 0.617 | IRTDAYVQAMT [RPE65_Y89_R91Q] | 0.543 | 0.458 | 0.572 | 0.644 | 0.471 | 0.374 | 0.446 | 0.41 | 0.529 | 0.378 | 0.608 | 0.503 | 0.49 |
| 1.19 | 0.951 | 1.01 | REIIAYQPFGK [PRKCG_Y529_P524R_YF] | 0.524 | 0.305 | 0.705 | 0.635 | 0.385 | 0.305 | 0.466 | 0.291 | 0.584 | 0.51 | 0.438 | 0.398 | 0.499 |
